According to patent EP4676945A2:

Molecular target: fibrin
Test: cell adhesion assay: HEK293 cells transfected with the CAR, 30 minutes on fibrin-coated plates, washed with PBS, adhered cells counted by Hoechst stain; reference control-CAR

fold increase of cell adhesion to fibrin against the control-CAR construct: 9.8 fold
B1: fibrin-specific FIB2-CAR (PMC 1946, FIB2scfvCAR), expressed on transfected/transduced HEK293 cells (receptor)
chain: DIQLTQSPSSLSASVGDRVTITCRASQNIGVNLNWYQQRPGKGPKLLVSSTFSLQSGVPSRFSASGAGTNFTLTISSLQPEDYVTYYCQQSYSSPFTFGPGTKVDIKGGGGSGGGGSGGGGSEVQLVESGGGAVQPGRSLRLSCAASGVSFSNIGMHWVRQAPGKGLEWVALISSDGRHTHYADSVKGRFTISRDNSENTLYLQINGLRADDTAVYYCAKGLDTRARYMGKFYTFDYWGQGTLVTVSSASAIEVMYPPPYLDNEKSNGTIIHVKGKHLCPSPLFPGPSKPFWVLVVVGGVLACYSLLVTVAFIIFWVKRGRKKLLYIFKQPFMRPVQTTQEEDGCSCRFPEEEEGGCELRVKFSRSADAPAYQQGQNQLYNELNLGRREEYDVLDKRRGRDPEMGGKPRRKNPQEGLYNELQKDKMAEAYSEIGMKGERRRGKGHDGLYQGLSTATKDTYDALHMQALPPR
